Laboratory results from publication PMC3166062, “Self-Association of an Activating Natural Killer Cell Receptor, KIR2DS1” (PLoS ONE, 2011).

Biological target: the molecule itself
Assay: dynamic light scattering; KIR2DS1 3 µM in 10 mM Tris-HCl, 150 mM sodium chloride, 0.4 mM sodium azide, 25°C; Zetasizer Nano ZS; mean hydrodynamic diameter 320 nm

B1: extracellular region of KIR2DS1 (domain or fragment)
chain: MAHEGVHRKPSLLAHPGRLVKSEETVILQCWSDVMFEHFLLHREGMFNDTLRLIGEHHDGVSKANFSISRMRQDLAGTYRCYGSVTHSPYQLSAPSDPLDIVIIGLYEKPSLSAQPGPTVLAGENVTLSCSSRSSYDMYHLSREGEAHERRLPAGTKVNGTFQANFPLGPATHGGTYRCFGSFRDSPYEWSKSSDPLLVSVTLVPRGS
notes: No cleavage of the tag is described; also called extracellular portion of KIR2DS1
binding result: binds
